{"source": "paper PMC10383195", "about": "“Interactions of the Kv1.1 Channel with Peptide Pore Blockers: A Fluorescent Analysis on Mammalian Cells” (Membranes, 2023)", "molecules": {"B1": {"name": "hongotoxin 1 (HgTx1) (peptide)", "chain": "TVIDVKCTSPKQCLPPCKAQFGIRAGAKCMNGKCKCYPH"}, "B2": {"name": "margatoxin (MgTx) (peptide)", "chain": "TIINVKCTSPKQCLPPCKAQFGQSAGAKCMNGKCKCYPH"}, "B3": {"name": "Atto 488-hongotoxin 1 (A-HgTx) (peptide)", "chain": "TVIDVKCTSPKQCLPPCKAQFGIRAGAKCMNGKCKCYPH"}, "B4": {"name": "Ce1 (peptide)", "chain": "TVINVKCTSPKQCLKPCKDLYGPHAGAKCMNGKCKCYNN"}}, "key": {"[1]": {"biological_target": "Kv1.3 (Homo sapiens) (UniProt P22001)", "sequence (P22001 whole entry)": "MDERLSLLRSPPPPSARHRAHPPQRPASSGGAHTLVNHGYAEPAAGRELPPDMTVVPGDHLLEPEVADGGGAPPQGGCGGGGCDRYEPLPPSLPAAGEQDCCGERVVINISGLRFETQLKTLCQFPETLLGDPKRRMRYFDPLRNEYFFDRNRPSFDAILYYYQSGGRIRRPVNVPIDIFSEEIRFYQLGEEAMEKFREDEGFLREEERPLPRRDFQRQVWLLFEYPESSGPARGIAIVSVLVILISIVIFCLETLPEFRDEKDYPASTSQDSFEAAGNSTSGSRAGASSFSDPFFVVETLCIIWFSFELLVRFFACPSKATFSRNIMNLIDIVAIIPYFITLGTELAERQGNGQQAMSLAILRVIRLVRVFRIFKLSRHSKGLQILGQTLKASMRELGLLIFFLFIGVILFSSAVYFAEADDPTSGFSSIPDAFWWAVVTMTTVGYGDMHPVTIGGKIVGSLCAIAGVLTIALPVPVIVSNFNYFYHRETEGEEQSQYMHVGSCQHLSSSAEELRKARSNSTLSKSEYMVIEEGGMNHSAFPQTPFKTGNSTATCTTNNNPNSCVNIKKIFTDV", "details": "cited from earlier work"}, "[2]": {"tested_on": "non-transfected Neuro2a cells", "details": "cited from earlier work"}, "[3]": {"biological_target": "T1, mKate2-tagged human Kv1.1 (S369T) channel (K-Kv1.1) (Homo sapiens, UniProt Q09470, S369T)", "T1 construct": "these fragments were combined and amplified using terminal primers to obtain the whole mutated gene; expressed in transfected cells; host or cells: mouse neuroblastoma Neuro2a cells, transient transfection with pmKate2-KCNA1m1", "test": "Competitive binding of peptide pore blocker and A-HgTx to K-Kv1.1 on the plasma membrane of Neuro2a cells (confocal microscopy)", "details": "for Kd: complete medium (closed channels), Neuro2a cells, A-HgTx 2 nM, 60 min, Cheng-Prusoff from DC50, mean ± SEM, two independent experiments, SEM, read-out: Kap (apparent dissociation constant of complex with K-Kv1.1)", "procedure": "To analyze the binding of A-HgTx, A-HgTx (0.25–4 nM) was added to cells in a complete medium for 60 min. To analyze competitive binding, A-HgTx (2 nM), together with the selected peptide (0.05–160 nM), was added to cells in a complete medium for 60 min.\nTo compare ligand binding with closed and open channels, ligands were added to cells (60 min, 37 °C) in a buffer (20 mM HEPES pH 7.4, 0.9 mM CaCl2, 0.5 mM MgCl2, 0.1% BSA) supplemented with 4 mM KCl and 150 mM NaCl (Na^+ buffer) or with 150 mM KCl (K^+ buffer).\nThe fluorescence of the K-Kv1.1 and K-Kv1.1wt channels was excited at 561 nm and detected in the 650–700 nm region. A-HgTx fluorescence was excited at 488 nm and detected in the 495–535 nm region. Sequential scanning was used to measure the cellular distributions of A-HgTx and mKate2 fluorescence in order to avoid interference of mKate2 fluorescence with cellular autofluorescence excited at 488 nm.\nQuantitative analysis of the interaction of A-HgTx with K-Kv1.1 was carried out in accordance with the procedure developed previously for A-HgTx and the fluorescently labeled Kv1.3 channel. Briefly, the regions of interest with K-Kv1.1 on the plasma membrane were selected in the confocal images and used to create binary (0;1) masks that described the membranous distribution of K-Kv1.1. The confocal images of K-Kv1.1 and A-HgTx were multiplied by the corresponding mask, and the average fluorescence intensities of A-HgTx (Ili) and K-Kv1.1 (Ici) corrected for the background signal were calculated for each i-cell. Ratio Ri = Ili/Ici was calculated and averaged over 15–20 cells to obtain the Rav value and the standard deviation.\nTo analyze the competitive binding of the studied peptide pore blocker and A-HgTx to K-Kv1.1 on the cellular membrane, Rav data were plotted depending on the blocker concentration (C) at the constant A-HgTx concentration (L) and fitted with the following equation:Rav(C) = Rav0/(1 + C/DC50)(3) where DC50 is the blocker concentration displacing 50% of A-HgTx from the complex with K-Kv1.1, and Rav0 is Rav at C = 0.\nThe apparent dissociation constant (Kap) of the complex between the studied blocker and the K-Kv1.1 channel was calculated using the Cheng–Prusoff equation:Kap = DC50/(1 + L/Kd).(4)\nTwo independent experiments were performed, and the Kav data were averaged and presented as mean ± SEM. Fifteen to twenty-five treated cell images were the average value for each point on the curves of A-HgTx binding to the K-Kv1.1 channel."}, "[4]": {"biological_target": "T2, K-Kv1.1 channel (hKv1.1S369T with mKate2) (Homo sapiens, UniProt Q09470, S369T)", "T2 construct": "these fragments were combined and amplified using terminal primers to obtain the whole mutated gene; expressed in transfected cells; host or cells: mouse neuroblastoma Neuro2a cells, transient transfection with pmKate2-KCNA1m1", "test": "Whole-cell patch-clamp of currents through K-Kv1.1 in Neuro2a cells", "type": "cell-based", "details": "HgTx1 2 nM, applied voltage from −10 to 70 mV, n = 10", "procedure": "Membrane ion currents through the K-Kv1.1 channel were recorded at room temperature by the patch-clamp technique using the standard whole-cell configuration as described earlier.\nBriefly, Neuro2a cells attached to coverslips (10 mm in diameter) pre-coated with poly-D-lysine were immersed in a buffer (140 mM NaCl, 2.8 mM KCl, 2 mM MgCl2, 2 mM CaCl2, 10 mM glucose, 10 mM HEPES, pH 7.4) and perfused continuously. Micropipettes with a tip resistance of 6–8 MΩ were filled with a pipette solution containing 140 mM KCl, 6 mM CaCl2, 2 mM MgCl2, 2 mM MgATP, 0.4 mM NaGTP, 10 mM HEPES, 20 mM BAPTA/KOH (pH 7.3). The patches were routinely held at a holding potential of −40 mV. The potential was changed from −70 to +70 mV (20 mV step) using 200 ms pulses, which were applied incrementally with an interval of 20 s. Finally, the potential returned to the holding potential.\nCells were measured 24–48 h after transfection. The cells were selected by K-Kv1.1 fluorescence. The cells were analyzed if their input resistance was more than 350 MΩ. The currents were recorded using an EPC-10 amplifier (HEKA Elektronik, Stuttgart, Germany).\n[…] The toxins were dissolved in a complete medium.\nThe measured concentration dependence of current inhibition through the K-Kv1.1 channel by A-HgTx was analyzed with the following equation:Irel(L) = 100/(1 + (IC50/L)^h) (1) where Irel is a decrease in current (%), L is the concentration of A-HgTx, IC50 is the concentration of A-HgTx that induces a 50% decrease in current, and h is the Hill coefficient."}, "[5]": {"biological_target": "T3, Kv1.1 (K-Kv1.1, mKate2-tagged) (Homo sapiens, UniProt Q09470)", "T3 chain": "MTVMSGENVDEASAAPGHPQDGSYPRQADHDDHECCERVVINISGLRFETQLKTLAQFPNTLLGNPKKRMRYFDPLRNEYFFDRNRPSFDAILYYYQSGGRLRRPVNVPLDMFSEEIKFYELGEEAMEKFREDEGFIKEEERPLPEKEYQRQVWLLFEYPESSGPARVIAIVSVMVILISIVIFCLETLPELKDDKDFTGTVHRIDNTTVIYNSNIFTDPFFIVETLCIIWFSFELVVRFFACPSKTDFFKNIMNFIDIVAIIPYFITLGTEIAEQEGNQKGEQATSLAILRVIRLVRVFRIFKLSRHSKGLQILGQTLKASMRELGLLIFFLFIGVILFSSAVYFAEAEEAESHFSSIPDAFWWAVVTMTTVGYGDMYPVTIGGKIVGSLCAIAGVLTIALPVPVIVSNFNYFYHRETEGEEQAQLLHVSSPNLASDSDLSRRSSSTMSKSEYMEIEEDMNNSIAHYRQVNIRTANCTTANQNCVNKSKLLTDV", "test": "competitive confocal fluorescence binding with A-HgTx, K+ buffer (open state)"}, "[6]": {"biological_target": "T3, Kv1.1 (K-Kv1.1, mKate2-tagged)", "test": "competitive confocal fluorescence binding with A-HgTx, complete medium"}, "[7]": {"biological_target": "T3, Kv1.1 (K-Kv1.1, mKate2-tagged)", "test": "confocal fluorescence binding on Neuro2a cells, K+ buffer (open state)"}, "[8]": {"biological_target": "T3, Kv1.1 (K-Kv1.1, mKate2-tagged)", "test": "confocal fluorescence binding on Neuro2a cells, complete medium"}, "[9]": {"biological_target": "T3, Kv1.1 (K-Kv1.1, mKate2-tagged)", "test": "confocal fluorescence binding on Neuro2a cells, Na+ buffer (closed state)"}}, "note": "Bridge positions count the residues as written; N and C are the ends. Peptide text beside a SMILES is read from it."}
{"molecule": "A-HgTx (Atto-labelled hongotoxin 1) (from UniProt P59847)", "values": [{"measurement": "Kd", "setting": "[1]", "result": 0.3, "unit": "nM"}]}
{"molecule": "charybdotoxin [ChTx]", "values": [{"measurement": "sensitivity of background currents to the blocker", "setting": "[2]", "result": "insensitive"}, {"measurement": "effect of channel state (closed or open) on affinity of K-Kv1.1 for the peptide", "setting": "[3]; A-HgTx (2 nM) displacement compared in complete medium, Na+ and K+ buffers", "result": "does not affect the affinity"}, {"measurement": "effect on binding of A-HgTx (2 nM) to K-Kv1.1", "setting": "[3]; ChTx 100 nM", "result": "does not affect the binding of A-HgTx to K-Kv1.1"}]}
{"molecule": "CC[C@H](C)[C@@H]1NC(=O)[C@@H]2CSSC[C@@H]3NC(=O)[C@H](CCCCN)NC(=O)[C@H](CCCNC(=N)N)NC(=O)[C@H](CC(N)=O)NC(=O)[C@H](CCSC)NC(=O)[C@H](CSSC[C@H](NC(=O)[C@H](CO)NC(=O)[C@@H](NC(=O)[C@H](CC(N)=O)NC(=O)[C@@H](NC(=O)[C@@H]4CCCN4C(=O)[C@@H](NC(=O)CN)C(C)C)[C@@H](C)CC)C(C)C)C(=O)N[C@@H]([C@@H](C)O)C(=O)NCC(=O)N[C@@H](CO)C(=O)N4CCC[C@H]4C(=O)N[C@@H](CCC(N)=O)C(=O)N2)NC(=O)[C@H](CCCCN)NC(=O)CNC(=O)[C@H](Cc2ccccc2)NC(=O)[C@H](CCCNC(=N)N)NC(=O)[C@H](CCSC)NC(=O)CNC(=O)[C@H](C)NC(=O)[C@H](CC(=O)O)NC(=O)[C@H](CCCCN)NC(=O)[C@H](CSSC[C@@H](C(=O)N[C@H](C(=O)N2CCC[C@H]2C(=O)N[C@@H](CCCCN)C(=O)O)[C@@H](C)O)NC(=O)[C@H](Cc2c[nH]cn2)NC3=O)NC(=O)[C@@H]2CCCN2C(=O)[C@H](CCCCN)NC1=O", "note": "[AgTx2, agitoxin 2]", "values": [{"measurement": "Kd", "setting": "[3]", "result": "1.5 ± 0.7", "unit": "nM"}]}
{"molecule": "CC[C@H](C)[C@H](NC(=O)[C@H](CCC(=O)O)NC(=O)[C@@H](NC(=O)CN)C(C)C)C(=O)N[C@@H](CC(N)=O)C(=O)N[C@H](C(=O)N[C@@H](CCCCN)C(=O)N[C@H]1CSSC[C@@H]2NC(=O)[C@H](CCCCN)NC(=O)CNC(=O)[C@H](Cc3ccccc3)NC(=O)[C@H](CCCNC(=N)N)NC(=O)[C@H](CCSC)NC(=O)CNC(=O)[C@H](C)NC(=O)[C@H](CC(=O)O)NC(=O)[C@H](CCCCN)NC(=O)[C@@H]3CSSC[C@@H](C(=O)N[C@H](C(=O)N4CCC[C@H]4C(=O)N[C@@H](CCCCN)C(=O)O)[C@@H](C)O)NC(=O)[C@H](Cc4c[nH]cn4)NC(=O)[C@H](CSSC[C@H](NC(=O)[C@H](CCC(N)=O)NC(=O)[C@@H]4CCCN4C(=O)[C@H](CO)NC(=O)CNC(=O)[C@H](CO)NC1=O)C(=O)N[C@@H](CC(C)C)C(=O)N[C@@H](CCCCN)C(=O)N1CCC[C@H]1C(=O)N3)NC(=O)[C@H](CCCCN)NC(=O)[C@H](CCCNC(=N)N)NC(=O)[C@H](CC(N)=O)NC(=O)[C@H](CCSC)NC2=O)C(C)C", "note": "[KTx1, kaliotoxin 1]", "values": [{"measurement": "Kd", "setting": "[3]", "result": "0.12 ± 0.08", "unit": "nM"}]}
{"molecule": "CC[C@H](C)[C@@H]1NC(=O)CNC(=O)[C@H](Cc2ccccc2)NC(=O)[C@H](CCC(N)=O)NC(=O)[C@H](C)NC(=O)[C@H](CCCCN)NC(=O)[C@@H]2CSSC[C@@H](C(=O)N[C@@H](Cc3ccc(O)cc3)C(=O)N3CCC[C@H]3C(=O)N[C@@H](Cc3c[nH]cn3)C(=O)O)NC(=O)[C@H](CCCCN)NC(=O)[C@@H]3CSSC[C@H](NC(=O)[C@H](CCC(N)=O)NC(=O)[C@H](CCCCN)NC(=O)[C@@H]4CCCN4C(=O)[C@H](CO)NC(=O)[C@H]([C@@H](C)O)NC(=O)[C@@H](NC(=O)[C@H](CCCCN)NC(=O)[C@@H](NC(=O)[C@H](CC(=O)O)NC(=O)[C@@H](NC(=O)[C@@H](NC(=O)[C@@H](N)[C@@H](C)O)C(C)C)[C@@H](C)CC)C(C)C)CSSC[C@H](NC(=O)[C@H](CCCCN)NC(=O)[C@H](C)NC(=O)CNC(=O)[C@H](C)NC(=O)[C@H](CCCNC(=N)N)NC1=O)C(=O)N[C@@H](CCSC)C(=O)N[C@@H](CC(N)=O)C(=O)NCC(=O)N[C@@H](CCCCN)C(=O)N3)C(=O)N[C@@H](CC(C)C)C(=O)N1CCC[C@H]1C(=O)N1CCC[C@H]1C(=O)N2", "note": "[HgTx1, hongotoxin 1] (H-TVIDVKCTSPKQCLPPCKAQFGIRAGAKCMNGKCKCYPH-OH; disulfide 7-29, 13-34, 17-36)", "values": [{"measurement": "decrease in the peak current amplitude", "setting": "[4]", "result": "73 ± 8", "unit": "%"}]}
{"molecule": "B1", "values": [{"measurement": "Kd", "setting": "[5]", "result": 0.05, "unit": "nM"}, {"measurement": "Kd", "setting": "[6]", "result": 0.03, "unit": "nM"}]}
{"molecule": "B2", "values": [{"measurement": "Kd", "setting": "[5]", "result": 0.5, "unit": "nM"}, {"measurement": "Kd", "setting": "[6]", "result": 0.3, "unit": "nM"}]}
{"molecule": "B3", "values": [{"measurement": "Kd", "setting": "[7]", "result": 0.8, "unit": "nM"}, {"measurement": "Kd", "setting": "[8]", "result": 0.7, "unit": "nM"}, {"measurement": "Kd", "setting": "[9]", "result": 0.9, "unit": "nM"}]}
{"molecule": "B4", "values": [{"measurement": "Kd", "setting": "[5]", "result": 18, "unit": "nM"}, {"measurement": "Kd", "setting": "[6]", "result": 11, "unit": "nM"}]}
